Source: patent US20140087995A1 (published 2014)
Numbered stars: 1 amine (or outer) side, 2 acyl side, 3 side chain; on linkers, the order of the positions; unused ones are H or OH. Bridge positions count the residues as written; N and C are the ends. Side chains are listed from the residue outwards. Ends that are not written are not given here. * marks the point of attachment. C20 diacid = O=C(O)CCCCCCCCCCCCCCCCCCC(=O)*; γGlu = O=C(O)[C@H](CCC(=O)[*:2])N[*:1]; AEEA = NCCOCCOCC(=O)O

T1: rat calcitonin receptor (rat, UniProt P32214 25-516)
T1 construct: whole, on cells; Cell membranes of transiently transfected BHK tk'ts 13 cells (Assay VIII); also called rCTR; rCT
T1 sequence (looked up): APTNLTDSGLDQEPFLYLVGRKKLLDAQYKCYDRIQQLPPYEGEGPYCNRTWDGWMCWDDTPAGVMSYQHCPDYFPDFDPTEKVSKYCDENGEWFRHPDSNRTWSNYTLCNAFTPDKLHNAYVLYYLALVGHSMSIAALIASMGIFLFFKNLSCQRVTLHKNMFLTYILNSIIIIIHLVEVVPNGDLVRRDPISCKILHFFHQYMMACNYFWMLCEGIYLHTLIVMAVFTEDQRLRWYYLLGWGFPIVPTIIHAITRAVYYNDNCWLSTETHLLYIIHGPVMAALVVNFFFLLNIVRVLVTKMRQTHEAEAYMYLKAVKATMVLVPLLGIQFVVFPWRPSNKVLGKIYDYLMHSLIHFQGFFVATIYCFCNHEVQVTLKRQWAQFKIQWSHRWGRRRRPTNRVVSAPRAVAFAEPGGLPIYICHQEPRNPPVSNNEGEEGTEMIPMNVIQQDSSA

T2: rat amylin receptor (rat calcitonin receptor + rat RAMP 3) (rat, UniProt P32214 25-516; Q9JJ73 23-147)
T2 construct: whole, on cells; Cell membranes of transiently transfected BHK tk'ts 13 cells (Assay VI); also called rAmylin-R; rat amylin 3(a) receptor
T2 sequence (looked up) 1: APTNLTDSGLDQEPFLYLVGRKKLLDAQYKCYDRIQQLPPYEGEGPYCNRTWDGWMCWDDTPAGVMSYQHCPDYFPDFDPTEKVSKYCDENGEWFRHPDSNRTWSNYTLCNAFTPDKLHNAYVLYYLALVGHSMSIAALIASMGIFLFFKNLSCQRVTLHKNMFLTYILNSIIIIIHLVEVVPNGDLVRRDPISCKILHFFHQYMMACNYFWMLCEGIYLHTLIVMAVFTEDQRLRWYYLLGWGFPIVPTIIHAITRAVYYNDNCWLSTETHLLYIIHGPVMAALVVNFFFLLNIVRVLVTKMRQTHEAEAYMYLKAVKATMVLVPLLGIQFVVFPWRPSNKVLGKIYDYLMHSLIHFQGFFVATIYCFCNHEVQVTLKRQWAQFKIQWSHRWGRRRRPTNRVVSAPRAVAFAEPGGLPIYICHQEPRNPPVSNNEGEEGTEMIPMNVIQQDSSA
T2 sequence (looked up) 2: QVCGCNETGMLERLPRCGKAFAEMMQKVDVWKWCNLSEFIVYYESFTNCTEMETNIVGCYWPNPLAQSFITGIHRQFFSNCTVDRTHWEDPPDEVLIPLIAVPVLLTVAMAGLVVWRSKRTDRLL

T3: human calcitonin receptor (human, UniProt P30988 25-474)
T3 construct: whole, on cells; Cell membranes of a stably transfected BHK cell line (Assay VII); also called hCTR; hCT
T3 sequence (looked up): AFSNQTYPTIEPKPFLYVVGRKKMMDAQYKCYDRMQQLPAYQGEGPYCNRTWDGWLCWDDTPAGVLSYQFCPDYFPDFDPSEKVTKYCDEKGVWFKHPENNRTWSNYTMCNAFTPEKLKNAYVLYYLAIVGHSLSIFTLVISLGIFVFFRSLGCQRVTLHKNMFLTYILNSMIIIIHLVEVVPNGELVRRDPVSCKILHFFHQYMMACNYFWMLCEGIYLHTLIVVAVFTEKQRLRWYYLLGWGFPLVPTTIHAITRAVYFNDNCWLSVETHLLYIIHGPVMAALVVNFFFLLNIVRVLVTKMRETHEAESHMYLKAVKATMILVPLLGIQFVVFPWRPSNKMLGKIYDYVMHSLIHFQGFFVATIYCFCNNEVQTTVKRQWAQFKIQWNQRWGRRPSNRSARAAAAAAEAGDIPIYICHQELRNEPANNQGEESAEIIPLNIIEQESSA


Tests used:
[1] = target: T1, rat calcitonin receptor; experiment: SPA competition vs 125I-calcitonin, membranes with rat CTR (Assay VIII)
[2] = target: T2, rat amylin receptor (rat calcitonin …); experiment: SPA competition vs 125I-rat amylin, membranes with rat CTR + rat RAMP3 (Assay VI)
[3] = target: T3, human calcitonin receptor; experiment: ratio IC50 human calcitonin receptor / IC50 human amylin receptor
In short: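 Scintillation proximity competition binding on cell membranes at 35 ng/μL with SPA beads, in 50 mM Hepes pH 7.4, 1 mM CaCl2, 5 mM MgCl₂, 0.1% OA, 0.02% Tween20. Incubated 120 min at 25° C with shaking. IC₅₀ from one-site competition fit.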

[4] = target: T1, rat calcitonin receptor; experiment: ratio IC50 rat calcitonin receptor / IC50 rat amylin receptor

IC50 [1] | IC50 [2] | Ratio hCT/hAmylin binding [3] | Ratio rCT/rAmylin binding [4] | Binder
46.8 nM | 0.33 nM | 48.9 | 142 | {C20 diacid-γGlu}-GRCNTATCATQRLANFLRHSSPNFGAIPSSTNVGSNTY-NH2 (disulfide 3-8; SMILES CC[C@H](C)[C@H](NC(=O)[C@H](C)NC(=O)CNC(=O)[C@H](Cc1ccccc1)NC(=O)[C@H](CC(N)=O)NC(=O)[C@@H]1CCCN1C(=O)[C@H](CO)NC(=O)[C@H](CO)NC(=O)[C@H](Cc1c[nH]cn1)NC(=O)[C@H](CCCNC(=N)N)NC(=O)[C@H](CC(C)C)NC(=O)[C@H](Cc1ccccc1)NC(=O)[C@H](CC(N)=O)NC(=O)[C@H](C)NC(=O)[C@H](CC(C)C)NC(=O)[C@H](CCCNC(=N)N)NC(=O)[C@H](CCC(N)=O)NC(=O)[C@@H](NC(=O)[C@H](C)NC(=O)[C@@H]1CSSC[C@H](NC(=O)[C@H](CCCNC(=N)N)NC(=O)CNC(=O)CC[C@H](NC(=O)CCCCCCCCCCCCCCCCCCC(=O)O)C(=O)O)C(=O)N[C@@H](CC(N)=O)C(=O)N[C@@H]([C@@H](C)O)C(=O)N[C@@H](C)C(=O)N[C@@H]([C@@H](C)O)C(=O)N1)[C@@H](C)O)C(=O)N1CCC[C@H]1C(=O)N[C@@H](CO)C(=O)N[C@@H](CO)C(=O)N[C@H](C(=O)N[C@@H](CC(N)=O)C(=O)N[C@H](C(=O)NCC(=O)N[C@@H](CO)C(=O)N[C@@H](CC(N)=O)C(=O)N[C@H](C(=O)N[C@@H](Cc1ccc(O)cc1)C(N)=O)[C@@H](C)O)C(C)C)[C@@H](C)O, Acylated analogue of human amylin, extended by one residue at the N-terminus; also called compound 46) [N^-1-[(4S)-4-carboxy-4-(19-carboxynonadecanoylamino)butanoyl]-Gly[Arg1,Arg17,Pro21,Pro27]-h-amylin]
41.8 nM | 0.623 nM | 26.8 | 67.1 | K([AEEA-γGlu-C20 diacid])RCNTATCATQRLANFLRHSSPNFGAIPSSTNVGSHTY-NH2 (disulfide 3-8; N-terminus assumed; SMILES CC[C@H](C)[C@H](NC(=O)[C@H](C)NC(=O)CNC(=O)[C@H](Cc1ccccc1)NC(=O)[C@H](CC(N)=O)NC(=O)[C@@H]1CCCN1C(=O)[C@H](CO)NC(=O)[C@H](CO)NC(=O)[C@H](Cc1c[nH]cn1)NC(=O)[C@H](CCCNC(=N)N)NC(=O)[C@H](CC(C)C)NC(=O)[C@H](Cc1ccccc1)NC(=O)[C@H](CC(N)=O)NC(=O)[C@H](C)NC(=O)[C@H](CC(C)C)NC(=O)[C@H](CCCNC(=N)N)NC(=O)[C@H](CCC(N)=O)NC(=O)[C@@H](NC(=O)[C@H](C)NC(=O)[C@@H]1CSSC[C@H](NC(=O)[C@H](CCCNC(=N)N)NC(=O)[C@@H](N)CCCCNC(=O)COCCOCCNC(=O)CC[C@H](NC(=O)CCCCCCCCCCCCCCCCCCC(=O)O)C(=O)O)C(=O)N[C@@H](CC(N)=O)C(=O)N[C@@H]([C@@H](C)O)C(=O)N[C@@H](C)C(=O)N[C@@H]([C@@H](C)O)C(=O)N1)[C@@H](C)O)C(=O)N1CCC[C@H]1C(=O)N[C@@H](CO)C(=O)N[C@@H](CO)C(=O)N[C@H](C(=O)N[C@@H](CC(N)=O)C(=O)N[C@H](C(=O)NCC(=O)N[C@@H](CO)C(=O)N[C@@H](Cc1c[nH]cn1)C(=O)N[C@H](C(=O)N[C@@H](Cc1ccc(O)cc1)C(N)=O)[C@@H](C)O)C(C)C)[C@@H](C)O, Acylated analogue of human amylin, extended by one residue at the N-terminus; also called compound 45)
